Data published in article PMC5177888, “An Adaptation To Life In Acid Through A Novel Mevalonate Pathway” (Scientific Reports, 2016).

Legend:
[1] = molecular target: the molecule itself; assay: SEC; recombinant Ta0893 (co-expressed with GroEL/ES) mixed with Biorad gel filtration standard, Superdex S200 10/300 GL, 50 mM sodium phosphate pH 6.5, 500 mM NaCl; fractions assayed for MBD activity; apparent molecular weight from the activity profile
[2] = molecular target: the molecule itself; assay: SEC; T. acidophilum cell-free lysate mixed with Biorad gel filtration standard, Superdex S200 10/300 GL, 50 mM sodium phosphate pH 6.5, 500 mM NaCl; fractions assayed for MBD activity; apparent molecular weight from the activity profile

Protein | stoichiometry N [1] | stoichiometry N [2]
mevalonate 3,5-bisphosphate decarboxylase (Ta0893) from Thermoplasma acidophilum, recombinant, full length, co-expressed with GroEL/GroES (enzyme, UniProt Q9HJS1 1-405, looked up, Ta0893, mevalonate 3,5-bisphosphate decarboxylase, Thermoplasma acidophilum; NCBI WP_010901303.1; full-length protein; predicted monomer 46.3 kDa; gene codon optimized and synthesized, cloned in pET28a(+) between NdeI and XhoI; The Ni-NTA eluate may still hold E. coli proteins such as the co-expressed chaperones; also called MBD; recombinant Ta0893; source: E. coli BL21(DE3) Gold, co-expressed …) MDTAGMEHSVSWISSNSDELILRSWISSRMDIAELHRAGDDIKEMMKSEGYYSEPSKYEAELSDGNITFAYSYPIKAFEKFLGYYDRENRIAFNPSISMRTDFSFCLAACRYRKNGKTDTVVLDGYADNKYYKKAKFALDKFRSEYSINGSFDFYIKRYRRYQKAKGLSESSAVAAAVSRALISNVFGDDAAKDDIFVSRYARLVSGSGTRAAHDGISMWLSYPGMDSRDCVAFKVGKSNENLNYGVFPKYSDVATDNAHSIAVNSVFYGTWVSEKFSNVKRLISDHFDINDLLKIGENDMLRLNSILMSGGLIIQTPDSLRILKEILKFKSKNEGFYFTADTGPSIAIFSFDRSLIDEFRENVNDEYIEGSYDFKGYNNRMRDFIREAQEYFTQTPGEDEEDRL | 2 | –
mevalonate 3,5-bisphosphate decarboxylase (Ta0893), native, in Thermoplasma acidophilum lysate (enzyme, UniProt Q9HJS1 1-405, looked up, Ta0893, mevalonate 3,5-bisphosphate decarboxylase, Thermoplasma acidophilum; NCBI WP_010901303.1; predicted monomer 46.3 kDa; followed as MBD activity in the lysate; also called MBD; native MBD; source: endogenous, T. acidophilum cell-free lysate) MDTAGMEHSVSWISSNSDELILRSWISSRMDIAELHRAGDDIKEMMKSEGYYSEPSKYEAELSDGNITFAYSYPIKAFEKFLGYYDRENRIAFNPSISMRTDFSFCLAACRYRKNGKTDTVVLDGYADNKYYKKAKFALDKFRSEYSINGSFDFYIKRYRRYQKAKGLSESSAVAAAVSRALISNVFGDDAAKDDIFVSRYARLVSGSGTRAAHDGISMWLSYPGMDSRDCVAFKVGKSNENLNYGVFPKYSDVATDNAHSIAVNSVFYGTWVSEKFSNVKRLISDHFDINDLLKIGENDMLRLNSILMSGGLIIQTPDSLRILKEILKFKSKNEGFYFTADTGPSIAIFSFDRSLIDEFRENVNDEYIEGSYDFKGYNNRMRDFIREAQEYFTQTPGEDEEDRL | – | 2
